Literature values in PMC4303049.

Experiments:
[1] = molecular target: PACS-1 FBR (Homo sapiens) (UniProt Q6VY07)
[2] = molecular target: PACS-2 FBR (Homo sapiens) (UniProt Q86VP3)
PACS-2 FBR (Homo sapiens), sequence (Q86VP3 37-186): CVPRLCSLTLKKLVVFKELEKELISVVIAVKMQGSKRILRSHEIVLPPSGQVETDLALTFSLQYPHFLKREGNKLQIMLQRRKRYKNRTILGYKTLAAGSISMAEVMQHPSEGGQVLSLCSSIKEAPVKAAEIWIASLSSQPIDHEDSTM

PACS-1 FBR (Homo sapiens), sequence (Q6VY07 117-266): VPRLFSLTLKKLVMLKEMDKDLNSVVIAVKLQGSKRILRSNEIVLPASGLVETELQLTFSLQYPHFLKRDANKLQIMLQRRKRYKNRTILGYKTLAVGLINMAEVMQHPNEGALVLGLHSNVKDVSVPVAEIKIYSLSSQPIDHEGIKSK

Polycystin-2 phosphorylated acidic cluster (from UniProt Q13563)
Kd [1]: 14.8 µM | Kd [2]: 15.4 µM
